In ChEMBL document CHEMBL4422612, “Small Molecule Inhibitor that Stabilizes the Autoinhibited Conformation of the Oncogenic Tyrosine Phosphatase SHP2” (J Med Chem, 2019):

What was measured:
[1] = compound: CCOc1cc(O)c(C(=O)/C=C/c2ccc(Cl)cc2Cl)cc1CN1CCC=C(n2c(=O)[nH]c3ccccc32)C1; assay: Mixed type inhibition of human wild-type full length SHP2 assessed as Kcat/Km ratio at 10 uM using H-Glu-Phe-pTyr-Ala-Glu-Val-Gly-Arg-Ser-Pro-Pro-Asp-Pro-Ala-Lys as substrate by Lineweaver-Burk plot analysis (reference value: 100.3 +/- 25 /mM/sec)
[2] = compound: CCOc1cc(O)c(C(=O)/C=C/c2ccc(Cl)cc2Cl)cc1CN1CCC=C(n2c(=O)[nH]c3ccccc32)C1; assay: Mixed type inhibition of human wild-type full length SHP2 assessed as substrate Km at 20 uM using H-Glu-Phe-pTyr-Ala-Glu-Val-Gly-Arg-Ser-Pro-Pro-Asp-Pro-Ala-Lys as substrate by Lineweaver-Burk plot analysis (reference value: 0.034 +/- 0.012 mM)
[3] = compound: CCOc1cc(O)c(C(=O)/C=C/c2ccc(Cl)cc2Cl)cc1CN1CCC=C(n2c(=O)[nH]c3ccccc32)C1; assay: Mixed type inhibition of human wild-type full length SHP2 assessed as substrate Vmax at 20 uM using H-Glu-Phe-pTyr-Ala-Glu-Val-Gly-Arg-Ser-Pro-Pro-Asp-Pro-Ala-Lys as substrate by Lineweaver-Burk plot analysis (reference value: 5.55 +/- 0.49 uM/min)
[4] = compound: CCOc1cc(O)c(C(=O)/C=C/c2ccc(Cl)cc2Cl)cc1CN1CCC=C(n2c(=O)[nH]c3ccccc32)C1; assay: Mixed type inhibition of human wild-type full length SHP2 assessed as substrate Kcat at 20 uM using H-Glu-Phe-pTyr-Ala-Glu-Val-Gly-Arg-Ser-Pro-Pro-Asp-Pro-Ala-Lys as substrate by Lineweaver-Burk plot analysis (reference value: 3.19 +/- 0.28 Sec'-1)
[5] = compound: CCOc1cc(O)c(C(=O)/C=C/c2ccc(Cl)cc2Cl)cc1CN1CCC=C(n2c(=O)[nH]c3ccccc32)C1; assay: Mixed type inhibition of human wild-type full length SHP2 assessed as substrate Vmax at 10 uM using H-Glu-Phe-pTyr-Ala-Glu-Val-Gly-Arg-Ser-Pro-Pro-Asp-Pro-Ala-Lys as substrate by Lineweaver-Burk plot analysis (reference value: 5.55 +/- 0.49 uM/min)
[6] = compound: CCOc1cc(O)c(C(=O)/C=C/c2ccc(Cl)cc2Cl)cc1CN1CCC=C(n2c(=O)[nH]c3ccccc32)C1; assay: Mixed type inhibition of human wild-type full length SHP2 assessed as substrate Kcat at 10 uM using H-Glu-Phe-pTyr-Ala-Glu-Val-Gly-Arg-Ser-Pro-Pro-Asp-Pro-Ala-Lys as substrate by Lineweaver-Burk plot analysis (reference value: 3.19 +/- 0.28 Sec'-1)
[7] = compound: CCOc1cc(O)c(C(=O)/C=C/c2ccc(Cl)cc2Cl)cc1CN1CCC=C(n2c(=O)[nH]c3ccccc32)C1; assay: Mixed type inhibition of human wild-type full length SHP2 assessed as Kcat/Km ratio at 20 uM using H-Glu-Phe-pTyr-Ala-Glu-Val-Gly-Arg-Ser-ProPro-Asp-Pro-Ala-Lys as substrate by Lineweaver-Burk plot analysis (reference value: 100.3 +/- 25 /mM/sec)
[8] = compound: CCOc1cc(O)c(C(=O)/C=C/c2ccc(Cl)cc2Cl)cc1CN1CCC=C(n2c(=O)[nH]c3ccccc32)C1; assay: Mixed type inhibition of human wild-type full length SHP2 assessed as substrate Km at 10 uM using H-Glu-Phe-pTyr-Ala-Glu-Val-Gly-Arg-Ser-Pro-Pro-Asp-Pro-Ala-Lys as substrate by Lineweaver-Burk plot analysis (reference value: 0.034 +/- 0.012 mM)

B1: Tyrosine-protein phosphatase non-receptor type 11 (Homo sapiens), Q06124 (protein)
chain: MTSRRWFHPNITGVEAENLLLTRGVDGSFLARPSKSNPGDFTLSVRRNGAVTHIKIQNTGDYYDLYGGEKFATLAELVQYYMEHHGQLKEKNGDVIELKYPLNCADPTSERWFHGHLSGKEAEKLLTEKGKHGSFLVRESQSHPGDFVLSVRTGDDKGESNDGKSKVTHVMIRCQELKYDVGGGERFDSLTDLVEHYKKNPMVETLGTVLQLKQPLNTTRINAAEIESRVRELSKLAETTDKVKQGFWEEFETLQQQECKLLYSRKEGQRQENKNKNRYKNILPFDHTRVVLHDGDPNEPVSDYINANIIMPEFETKCNNSKPKKSYIATQGCLQNTVNDFWRMVFQENSRVIVMTTKEVERGKSKCVKYWPDEYALKEYGVMRVRNVKESAAHDYTLRELKLSKVGQGNTERTVWQYHFRTWPDHGVPSDPGGVLDFLEEVHHKQESIMDAGPVVVHCSAGIGRTGTFIVIDILIDIIREKGVDCDIDVPKTIQMVRSQRSGMVQTEAQYRFIYMAVQHYIETLQRRIEEEQKSKRKGHEYTNIKYSLADQTSGDQSPLPPCTPTPPCAEMREDSARVYENVGLMQQQKSFR
- kcat/Km [1]: 33.2 mM⁻¹ s⁻¹
- Km [2]: 52 µM
- Vmax [3]: 1.5 µM/min
- kcat [4]: 0.86 s⁻¹
- Vmax [5]: 2.6 µM/min
- kcat [6]: 1.5 s⁻¹
- kcat/Km [7]: 17.2 mM⁻¹ s⁻¹
- Km [8]: 47 µM
